# B1: Azoarcus group I ribozyme (parent)
# chain: GUGCCUUGCGCCGGGAAACCACGCAAGGGAUGGUGUCAAAUUCGGCGAAACCUAAGCGCCCGCCCGGGCGUAUGGCAACGCCGAGCCAAGCUUCGGCGCCUGCGCCGAUGAAGGUGUAGAGACUAGACGGCACCCACCUAAGGCAAACGCUAUGGUGAAGGCAUAGUCCAGGGAGUGGCGAAAGUCACACAAACCGG
# Variants of: B1
# Assay: reverse-splicing fitness (ratio to wild type); higher = more active; in vitro selection; Mg2+ level not given
# How it was run: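 An in vitro group I ribozyme library with randomized positions was T7-transcribed and gel-purified. In triplicate, 10 pmol RNA in EPPS pH 7.5 was reacted with 50 pmoles of a 30-nt RNA substrate for 1 h at 37 °C across several added MgCl2 levels (1–48 mM), then stopped with EDTA. Products were reverse transcribed from a substrate-complementary primer, PCR-amplified and sequenced (HiSeq 4000). Fitness is a variant's read proportion after selection over that before, normalised to wild type.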
row,Variant,reverse-splicing fitness
1,GUGCCUUGCGCCGGGAAACCACGCAAGGGAUGGUGUCAAAUUCGGCGAAACCUAAGCGCCCGCCCGGGCGUAUGGCAACGCGGAGCCAAGCUUCGGCGCCUGCGCCGAUGGAGGUGUAGUGACUAGACGGCACCCACCUAAGGCAAACGGUAUGGUGAAGGCAUAGUCCAGGGAGGGGCGAAAGUCACACAAACCGG [C82G A111G A120U C150G U176G],0.00299
2,GUGCCUUGCGCCGGGAAACCACGCAAGGGAUGGUGUCAAAUUCGGCGAAACCUAAGCGCCCGCCCGGGCGUAUGGCAACGCGGAGCCAAGCUUCGGCGCCUGCGCCGAUGGAGGUGUAGUGACUAGACGGCACCCACCUAAGGCAAACGGUAUGGUGAAGGCAUAGUCCAGGGAGCGGCGAAAGUCACACAAACCGG [C82G A111G A120U C150G U176C],0.00821
3,GUGCCUUGCGCCGGGAAACCACGCAAGGGAUGGUGUCAAAUUCGGCGAAACCUAAGCGCCCGCCCGGGCGUAUGGCAACGCGGAGCCAAGCUUCGGCGCCUGCGCCGAUGGAGGUGUAGUGACUAGACGGCACCCACCUAAGGCAAACGGUAUGGUGAAGGCAUAGUCCAGGGAGAGGCGAAAGUCACACAAACCGG [C82G A111G A120U C150G U176A],0.00529
4,GUGCCUUGCGCCGGGAAACCACGCAAGGGAUGGUGUCAAAUUCGGCGAAACCUAAGCGCCCGCCCGGGCGUAUGGCAACGCGGAGCCAAGCUUCGGCGCCUGCGCCGAUGGAGGUGUAGUGACUAGACGGCACCCACCUAAGGCAAACGUUAUGGUGAAGGCAUAGUCUAGGGAGCGGCGAAAGUCACACAAACCGG [C82G A111G A120U C150U C169U U176C],0.0051
5,GUGCCUUGCGCCGGGAAACCACGCAAGGGAUGGUGUCAAAUUCGGCGAAACCUAAGCGCCCGCCCGGGCGUAUGGCAACGCGGAGCCAAGCUUCGGCGCCUGCGCCGAUGGAGGUGUAGUGACUAGACGGCACCCACCUAAGGCAAACGUUAUGGUGAAGGCAUAGUCUAGGGAGAGGCGAAAGUCACACAAACCGG [C82G A111G A120U C150U C169U U176A],0.00523
6,GUGCCUUGCGCCGGGAAACCACGCAAGGGAUGGUGUCAAAUUCGGCGAAACCUAAGCGCCCGCCCGGGCGUAUGGCAACGCGGAGCCAAGCUUCGGCGCCUGCGCCGAUGGAGGUGUAGUGACUAGACGGCACCCACCUAAGGCAAACGUUAUGGUGAAGGCAUAGUCUAGGGAGGGGCGAAAGUCACACAAACCGG [C82G A111G A120U C150U C169U U176G],0.00214
7,GUGCCUUGCGCCGGGAAACCACGCAAGGGAUGGUGUCAAAUUCGGCGAAACCUAAGCGCCCGCCCGGGCGUAUGGCAACGCGGAGCCAAGCUUCGGCGCCUGCGCCGAUGGAGGUGUAGUGACUAGACGGCACCCACCUAAGGCAAACGGUAUGGUGAAGGCAUAGUCGAGGGAGAGGCGAAAGUCACACAAACCGG [C82G A111G A120U C150G C169G U176A],0.00638
8,GUGCCUUGCGCCGGGAAACCACGCAAGGGAUGGUGUCAAAUUCGGCGAAACCUAAGCGCCCGCCCGGGCGUAUGGCAACGCGGAGCCAAGCUUCGGCGCCUGCGCCGAUGGAGGUGUAGUGACUAGACGGCACCCACCUAAGGCAAACGGUAUGGUGAAGGCAUAGUCGAGGGAGGGGCGAAAGUCACACAAACCGG [C82G A111G A120U C150G C169G U176G],0.00263
9,GUGCCUUGCGCCGGGAAACCACGCAAGGGAUGGUGUCAAAUUCGGCGAAACCUAAGCGCCCGCCCGGGCGUAUGGCAACGCGGAGCCAAGCUUCGGCGCCUGCGCCGAUGGAGGUGUAGUGACUAGACGGCACCCACCUAAGGCAAACGGUAUGGUGAAGGCAUAGUCGAGGGAGCGGCGAAAGUCACACAAACCGG [C82G A111G A120U C150G C169G U176C],0.00486
10,GUGCCUUGCGCCGGGAAACCACGCAAGGGAUGGUGUCAAAUUCGGCGAAACCUAAGCGCCCGCCCGGGCGUAUGGCAACGCGGAGCCAAGCUUCGGCGCCUGCGCCGAUGGAGGUGUAGUGACUAGACGGCACCCACCUAAGGCAAACGUUAUGGUGAAGGCAUAGUCGAGGGAGCGGCGAAAGUCACACAAACCGG [C82G A111G A120U C150U C169G U176C],0.00412
11,GUGCCUUGCGCCGGGAAACCACGCAAGGGAUGGUGUCAAAUUCGGCGAAACCUAAGCGCCCGCCCGGGCGUAUGGCAACGCGGAGCCAAGCUUCGGCGCCUGCGCCGAUGGAGGUGUAGUGACUAGACGGCACCCACCUAAGGCAAACGUUAUGGUGAAGGCAUAGUCGAGGGAGAGGCGAAAGUCACACAAACCGG [C82G A111G A120U C150U C169G U176A],0.00758
12,GUGCCUUGCGCCGGGAAACCACGCAAGGGAUGGUGUCAAAUUCGGCGAAACCUAAGCGCCCGCCCGGGCGUAUGGCAACGCGGAGCCAAGCUUCGGCGCCUGCGCCGAUGGAGGUGUAGUGACUAGACGGCACCCACCUAAGGCAAACGUUAUGGUGAAGGCAUAGUCGAGGGAGGGGCGAAAGUCACACAAACCGG [C82G A111G A120U C150U C169G U176G],0.0024
13,GUGCCUUGCGCCGGGAAACCACGCAAGGGAUGGUGUCAAAUUCGGCGAAACCUAAGCGCCCGCCCGGGCGUAUGGCAACGCGGAGCCAAGCUUCGGCGCCUGCGCCGAUGGAGGUGUAGUGACUAGACGGCACCCACCUAAGGCAAACGUUAUGGUGAAGGCAUAGUCGAGGGAGUGGCGAAAGUCACACAAACCGG [C82G A111G A120U C150U C169G],0.00538
14,GUGCCUUGCGCCGGGAAACCACGCAAGGGAUGGUGUCAAAUUCGGCGAAACCUAAGCGCCCGCCCGGGCGUAUGGCAACGCGGAGCCAAGCUUCGGCGCCUGCGCCGAUGGAGGUGUAGUGACUAGACGGCACCCACCUAAGGCAAACGUUAUGGUGAAGGCAUAGUCUAGGGAGUGGCGAAAGUCACACAAACCGG [C82G A111G A120U C150U C169U],0.00493
15,GUGCCUUGCGCCGGGAAACCACGCAAGGGAUGGUGUCAAAUUCGGCGAAACCUAAGCGCCCGCCCGGGCGUAUGGCAACGCGGAGCCAAGCUUCGGCGCCUGCGCCGAUGGAGGUGUAGUGACUAGACGGCACCCACCUAAGGCAAACGUUAUGGUGAAGGCAUAGUCAAGGGAGUGGCGAAAGUCACACAAACCGG [C82G A111G A120U C150U C169A],0.00504

# — the RNAGym collection of RNA variant scans (doi:10.1093/molbev/msab373)
